Where two headings read alike, the source gives them in different places.
Tests used:
Test in all cases: SEC-MALS
[1] = target: λ Ea22(102–182) (bacteriophage λ)
[2] = target: λ Ea22(109–182) (bacteriophage λ)
[3] = target: φ24B Ea22(135–261) (bacteriophage φ24B)
[4] = target: φ24B Ea22(135–261) (bacteriophage φ24B); remark: listed apart in the source
[5] = target: φP27 Ea22(1–315) (bacteriophage φP27)
[6] = target: λ Ea22(93–182) (bacteriophage λ)
[7] = target: λ Ea22(1–182) (bacteriophage λ)

Substance: λ Ea22(102–182) (domain or fragment)
- stoichiometry N [1]: 2

Substance: λ Ea22(109–182) (domain or fragment)
- stoichiometry N [2]: 2

Substance: φ24B Ea22(135–261) (domain or fragment)
- stoichiometry N [3]: 4
- stoichiometry N [4]: 2

Substance: φP27 Ea22(1–315) (natural protein)
- stoichiometry N [5]: 4

Substance: λ Ea22(93–182) (domain or fragment)
- stoichiometry N [6]: 2

Substance: λ Ea22(1–182) (natural protein)
- stoichiometry N [7]: 4

— publication PMC7271347
